Source: publication PMC6817665 (iScience, 2019)
Where “and” joins values, the source holds several entries; their conditions need not be identical. Equal values may be shown once.

Columns and labels:
[1] = molecular target: M1 (linear) GST-Ub2 (UniProt P0CG48); test: BLI
[2] = molecular target: the molecule itself; test: SEC-MALS

ESLVECPKCNIQYPATEHRDLLVHVEYCSK [Strep-tag II CEP55 ZF (StrepII-tag version of CEP55 ZF peptide, residues 435–464)]
Kd [1]: 1600 nM

ESLVECPKCNIQYPATEHRDLLVHVAYCSK [StrepII-tag version of CEP55 ZF mutant E460A]
fold reduction of binding affinity against WT [1]: 26 fold

B1: CEP55 His-NOA (His-tag version of the human CEP55 NOA fragment, residues 304–396) (domain or fragment)
chain: IQKLREENDIARGKLEEEKKRSEELLSQVQFLYTSLLKQQEEQTRVALLEQQMQACTLDFENEKLDRQHVQHQLHVILKELRKARNQITQLES
fold weaker dimerization affinity than NEMO NOA [2]: 6 fold
stoichiometry N [2]: 2 and 6
